Reference: patent publication US20260070940A1 (Hoffmann-La Roche, published 2026)

Molecular target: T1, hu CD28-Fc (Fc-knob-avi and Fc-hole chains), biotinylated (human, biotin on the avi tag)
T1 construct: also called CD28-Fc-avi
Assay: SPR, bacterial supernatant
Protocol: The off-rate of selected aVH clones was measured using a ProteOn XPR36 instrument (Biorad) at 25° C. with biotinylated hu CD28-Fc immobilized on NLC chips by neutravidin capture. A biotinylated Fc fragment was used as a negative control. Immobilization of recombinant antigens (ligand): Antigens were diluted with PBST (10 mM phosphate, 150 mM sodium chloride pH 7.4, 0.005% Tween 20) to 10 μg/ml, then injected at 30 μl/minute at varying contact times, to achieve immobilization levels of 400, 800 or 1600 response units (RU) in vertical orientation. Injection of analytes: Injection direction was changed to horizontal orientation and 5 individual aVH-containing supernatants that were diluted 1:3 with PBST were injected simultaneously at 60 μl/min along separate channels 1-5, with association times between 120 and 180s, and dissociation times of 800s. Diluted bacterial supernatant without aVH was injected along the sixth channel to provide an “in-line” blank for referencing. Dissociation rate constants (koff) were calculated using the “koff-rate” calculation in ProteOn Manager v3.1 software.

koff [s⁻¹] | Binder
0.00151 | anti-CD28 aVH P020.029 (VHH) VHH: EVQLVESGGGLVQPGGSLRLSCAASGFNIKDTCIGWVRRAPGKEEELVAGICEAGGDTRYADSVKGRFTISADTSKNTAYLQMNSLRAEDTAVYYCAESQQGSYYSYWGQGTTVTVSS
0.00216 | anti-CD28 aVH P020.034 (VHH) VHH: EVQLVESGGGLVQPGGSLRLSCAASGFNIKDTCIGWVRRAPGKEEELVAAICHHGGDTRYADSVKGRFTISADTSKNTAYLQMNSLRAEDTAVYYCAESQVDSYYSYWGQGTTVTVSS
0.0131 | anti-CD28 aVH P020.037 (VHH) VHH: EVQLVESGGGLVQPGGSLRLSCAASGFNIKDTCIGWVRRAPGKEEELVAAICDSGGDTRYADSVKGRFTISADTSKNTAYLQMNSLRAEDTAVYYCAASDYNSHYSYWGQGTTVTVSS
0.0135 | anti-CD28 aVH P020.051 (VHH) VHH: EVQLVESGGGLVQPGGSLRLSCAASGFNIKDTCIGWVRRAPGKEEELVAAICKTQGDTRYADSVKGRFTISADTSKNTAYLQMNSLRAEDTAVYYCAAANYDSPYTYWGQGTTVTVSS
0.018 | anti-CD28 aVH P020.063 (VHH) VHH: EVQLVESGGGLVQPGGSLRLSCAASGFNIKDTCIGWVRRAPGKEEELVAAICPEYGDTRYADSVKGRFTISADTSKNTAYLQMNSLRAEDTAVYYCASSDYDSAYSYWGQGTTVTVSS

More lines, now with the values behind:

Binder | koff [s⁻¹]
anti-CD28 aVH P019.020 (VHH) VHH: EVQLVESGGGLVQPGGSLRLSCAASGFNIKDSSTYIGWVRRAPGKEEELVAYIYCTQGETRYADSVKGRFTISCDTSKNTAYLQMNSLRAEDTAVYYCASWGGNYPYYYWGQGTTVTVSS | 0.0206
anti-CD28 aVH P020.010 (VHH) VHH: EVQLVESGGGLVQPGGSLRLSCAASGFNIKDTCIGWVRRAPGKEEELVAYICEGNGYTRYADSVKGRFTISADTSKNTAYLQMNSLRAEDTAVYYCAAEGKETYYYQYWGQGTTVTVSS | 0.00068
anti-CD28 aVH P020.057 (VHH) VHH: EVQLVESGGGLVQPGGSLRLSCAASGFNIKDTCIGWVRRAPGKEEELVAAICYTQGDTRYADSVKGRFTISADTSKNTAYLQMNSLRAEDTAVYYCAASQYDSYYTYWGQGTTVTVSS | 0.0174
anti-CD28 aVH P020.017 (VHH) VHH: EVQLVESGGGLVQPGGSLRLSCAASGFNIKDTCIGWVRRAPGKEEELVAAICPDEGDTRYADSVKGRFTISADTSKNTAYLQMNSLRAEDTAVYYCAAAKYDDRYNYWGQGTTVTVSS | 0.0109
anti-CD28 aVH P020.023 (VHH) VHH: EVQLVESGGGLVQPGGSLRLSCAASGFNIKDTCIGWARRAPGKEEELVAAICDYNGHTRYADSVKGRFTISADTSKNTAYLQMNSLRAEDTAVYYCAQSDYDSKYSYWGQGTTVTVSS | 0.0033
anti-CD28 aVH P020.027 (VHH) VHH: EVQLVESGGGLVQPGGSLRLSCAASGFNIKDTCIGWVRRAPGKEEELVAGICRDGGDTRYADSVKGRFTISADTSKNTAYLQMNSLRAEDTAVYYCAASDYDSYYAYWGQGTTVTVSS | 0.00145
anti-CD28 aVH P020.042 (VHH) VHH: EVQLVESGGGLVQPGGSLRLSCAASGFNIKDTCIGWVRRAPGKEEELVAAICREAGDTRYADSVKGRFTISADTSKNTAYLQMNSLRAEDTAVYYCAAADYDSTYIYWGQGTTVTVSS | 0.0144
anti-CD28 aVH P020.065 (VHH) VHH: EVQLVESGGGLVQPGGSLRLSCAASGFNIKDTCIGWVRRAPGKEEELVAGICYTYGDTRYADSVKGRFTISADTSKNTAYLQMNSLRAEDTAVYYCASSEVDSYYSYWGQGTTVTVSS | 0.00885
anti-CD28 aVH P020.035 (VHH) VHH: EVQLVESGGGLVQPGGSLRLSCAASGFNIKDTCIGWVRRAPGKEEELVADICGDDGHTRYADSVKGRFTISADTSKNTAYLQMNSLRAEDTAVYYCAYYSGSYYEYWGQGTTVTVSS | 0.00134
